# Laboratory results as given in patent US20230391845A1, “GLP-1, GIP AND GLUCAGON RECEPTOR TRIPLE AGONISTS” (priority 2020, published 2023).
# Where no end group is shown, it is not given here. [ ]: non-standard residue; d: D form. Aib = CC(C)(N)C(=O)O
# T1: human glucose-dependent insulinotropic polypeptide receptor (human, UniProt P48546 22-466)
# T1 sequence (looked up): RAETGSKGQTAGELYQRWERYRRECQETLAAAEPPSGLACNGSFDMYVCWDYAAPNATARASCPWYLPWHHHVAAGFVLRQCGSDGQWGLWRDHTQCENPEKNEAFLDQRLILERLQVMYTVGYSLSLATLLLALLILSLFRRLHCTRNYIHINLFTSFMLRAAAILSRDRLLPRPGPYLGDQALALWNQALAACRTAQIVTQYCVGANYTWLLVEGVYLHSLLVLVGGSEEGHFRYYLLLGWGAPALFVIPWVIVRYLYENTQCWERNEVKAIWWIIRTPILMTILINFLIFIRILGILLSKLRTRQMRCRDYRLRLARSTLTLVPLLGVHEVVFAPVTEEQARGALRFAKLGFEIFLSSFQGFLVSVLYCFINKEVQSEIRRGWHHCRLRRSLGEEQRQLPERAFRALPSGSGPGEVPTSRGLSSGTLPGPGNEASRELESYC
# B1: Compound No. 5 (peptide)
# peptide: Y[Aib]QGTFTSDYSIYLDKQAA[Aib]EFVNWLLAGGPSSGAPPPS-NH2
# modifications: not fully specified (residue 16); printed as Y-Aib-QGTFTSDYSIYLD-K[2-[2-[2-[2-[2-[2-[[[(4S)-4-carboxy-4-(19-carboxynonadecanoylamino) butanoyl]amino]ethoxy]ethoxy]acetyl]amino]ethoxy]ethoxy]acetyl]-QAA-Aib-EFVNWLLAGGPSSGAPPPS-NH2
# B2: Compound No. 10 (peptide)
# peptide: Y[Aib]QGTFTSDYSIYLDKKAA[Aib]EFVNWLLAGGPSSGAPPPS-NH2
# modifications: not fully specified (residue 17); printed as Y-Aib-QGTFTSDYSIYLDK-K[2-[2-[2-[[2-[2-[2-[[(4S)-4-carboxy-4-[[4-[(19-carboxynonadecanoylamino)methyl]cyclohexanecarbonyl]amino]butanoyl]amino]ethoxy]ethoxy]acetyl]amino]ethoxy]ethoxy]acetyl]-AA-Aib-EFVNWLLAGGPSSGAPPPS-NH2
# B3: Compound No. 14 (peptide)
# peptide: Y[Aib]QGTFTSDYSIYLEKQAA[Aib]EFVQWLLEGGPSSGAPPPS-NH2
# modifications: not fully specified (residue 16); printed as Y-Aib-QGTFTSDYSIYLE-K[2-[2-[2-[[2-[2-[2-[[(4S)-4-carboxy-4-[[4-[(19-carboxynonadecanoylamino)methyl]cyclohexanecarbonyl]amino]butanoyl]amino]ethoxy]ethoxy]acetyl]amino]ethoxy]ethoxy]acetyl]-QAA-Aib-EFVQWLLEGGPSSGAPPPS-NH2
# B4: Compound No. 9 (peptide)
# peptide: Y[Aib]QGTFTSDYSIYLDKKAA[Aib]EFVNWLLAGGPSSGAPPPS-NH2
# modifications: not fully specified (residue 17); printed as Y-Aib-QGTFTSDYSIYLDK-K[2-[2-[2-[[2-[2-[2-[[(4S)-4-carboxy-4-(19-carboxynonadecanoylamino)butanoyl]amino]ethoxy]ethoxy]acetyl]amino]ethoxy]ethoxy]acetyl]-AA-Aib-EFVNWLLAGGPSSGAPPPS-NH2
# B5: Compound No. 4 (peptide)
# peptide: Y[Aib]QGTFTSDYSIYLDKQAA[Aib]KFVQWLLEGGPSSGAPPPS-NH2
# modifications: not fully specified (residue 21); printed as Y-Aib-QGTFTSDYSIYLDKQAA-Aib-K[2-[2-[2-[[2-[2-[2-[[(4S)-4-carboxy-4-(17-carboxyheptadecanoylamino)butanoyl]amino]ethoxy]ethoxy]acetyl]amino]ethoxy]ethoxy]acetyl]-FVQWLLEGGPSSGAPPPS-NH2
# B6: Compound No. 56 (peptide)
# peptide: H[Aib]HGTFTSDYSILLEKQAAHEFVQWLLEGGPSSGAPPPS-OH
# modifications: not fully specified (residue 16); printed as H-Aib-HGTFTSDYSILLE-K[(2S)-2-amino-6-[[(2S)-2-amino-6-[[(4S)-4-carboxy-4-(17-carboxyheptadecanoylamino)butanoyl]amino]hexanoyl]amino]hexanoyl]-QAAHEFVQWLLEGGPSSGAPPPS-OH
# B7: Compound No. 6 (peptide)
# peptide: Y[Aib]QGTFTSDYSIYLDKQAA[Aib]EFVNWLLAGGPSSGAPPPS-NH2
# modifications: not fully specified (residue 16); printed as Y-Aib-QGTFTSDYSIYLD-K[2-[2-[2-[[2-[2-[2-[[(4S)-4-carboxy-4-[[4-[(19-carboxynonadecanoylamino) methyl]cyclohexanecarbonyl]amino]butanoyl]amino]ethoxy ]ethoxy]acetyl]amino]ethoxy]ethoxy]acetyl]-QAA-Aib-EFVNWLLAGGPSSGAPPPS-NH2
# B8: Compound No. 7 (peptide)
# peptide: Y[Aib]QGTFTSDYSIYLDKQAA[Aib]KFVQWLLEGGPSSGAPPPS-NH2
# modifications: not fully specified (residue 21); printed as Y-Aib-QGTFTSDYSIYLDKQAA-Aib-K[2-[2-[2-[[2-[2-[2-11(4S)-4-carboxy-4-(19-carboxynonadecanoylamino)butanoyl]amino]ethoxy]ethoxy]acetyl]amino]ethoxy]ethoxy]acetyl]-FVQWLLEGGPSSGAPPPS-NH2
# B9: Compound No. 15 (peptide)
# peptide: Y[Aib]QGTFTSDYSIYLEKQAA[Aib]EFVNWLLAGGPSSGAPPPS-NH2
# modifications: not fully specified (residue 16); printed as Y-Aib-QGTFTSDYSIYLE-K[2-[2-[2-[[2-[2-[2-[[(4S)-4-carboxy-4-(19-carboxynonadecanoylamino)butanoyl]amino]ethoxy]ethoxy]acetyl]amino]ethoxy]ethoxy]acetyl]-QAA-Aib-EFVNWLLAGGPSSGAPPPS-NH2
# B10: Compound No. 18 (peptide)
# peptide: Y[Aib]HGTFTSDYSIYLEKQAA[Aib]EFVQWLLEGGPSSGAPPPS-NH2
# modifications: not fully specified (residue 16); printed as Y-Aib-HGTFTSDYSIYLE-K[(2S)-2-amino-6-[[(2S)-2-amino-6-[[(4S)-4-carboxy-4-(19-carboxynonadecanoylamino)butanoyl]amino]hexanoyl]amino]hexanoyl]-QAA-Aib-EFVQWLLEGGPSSGAPPPS-NH2
# B11: Compound No. 13 (peptide)
# peptide: Y[Aib]QGTFTSDYSIYLEKQAA[Aib]EFVNWLLAGGPSSGAPPPS-NH2
# modifications: not fully specified (residue 16); printed as Y-Aib-QGTFTSDYSIYLE-K[(2S)-2-amino-6-[[(2S)-2-amino-6-[[(4S)-4-carboxy-4-[[4-[(19-carboxynonadecanoylamino)methyl]cyclohexanecarbonyl]amino]butanoyl]amino]hexanoyl]amino]hexanoyl]-QAA-Aib-EFVNWLLAGGPSSGAPPPS-NH2
# B12: Compound No. 8 (peptide)
# peptide: Y[Aib]QGTFTSDYSIYLDKQAA[Aib]KFVQWLLEGGPSSGAPPPS-NH2
# modifications: not fully specified (residue 21); printed as Y-Aib-QGTFTSDYSIYLDKQAA-Aib-K[2-[2-[2-[[2-[2-[2-[[(4S)-4-carboxy-4-[[4-[(19-carboxynonadecanoylamino)methyl]cyclohexanecarbonyl]amino]butanoyl]amino]ethoxy]ethoxy]acetyl]amino]ethoxy]ethoxy]acetyl]-FVQWLLEGGPSSGAPPPS-NH2
# B13: Compound No. 16 (peptide)
# peptide: Y[Aib]QGTFTSDYSIYLEKQAA[Aib]EFVQWLLEGGPSSGAPPPS-NH2
# modifications: not fully specified (residue 16); printed as Y-Aib-QGTFTSDYSIYLE-K[2-[2-[2-[[2-[2-[2-[[(4S)-4-carboxy-4-(19-carboxynonadecanoylamino)butanoyl]amino]ethoxy]ethoxy]acetyl]amino]ethoxy]ethoxy]acetyl]-QAA-Aib-EFVQWLLEGGPSSGAPPPS-NH2
# B14: Compound No. 12 (peptide)
# peptide: Y[Aib]QGTFTSDYSIYLEKQAA[Aib]EFVNWLLAGGPSSGAPPPS-NH2
# modifications: not fully specified (residue 16); printed as Y-Aib-QGTFTSDYSIYLE-K[2-[2-[2-[[2-[2-[2-[[(4S)-4-carboxy-4-[[4-[(19-carboxynonadecanoylamino)methyl]cyclohexanecarbonyl]amino]butanoyl]amino]ethoxy]ethoxy]acetyl]amino]ethoxy]ethoxy]acetyl]-QAA-Aib-EFVNWLLAGGPSSGAPPPS-NH2
# Target: T1, human glucose-dependent insulinotropic …
# Assay: cell-based or functional assay
row,Binder,hGIPR CRE Luc EC50 (pM)
1,B1,20.6
2,B2,27.6
3,B3,4.2
4,B4,48.6
5,B5,60.3
6,B6,2.3
7,Y[Aib]QGTFTSDYSIYLEKQAA[Aib]EFVQWLLEGGPSSGAPPPS-NH2 (not fully specified (residue 16)) [Compound No. 17],7
8,B7,7.7
9,B8,65.5
10,B9,4.8
11,B10,7.1
12,B11,2.1
13,B12,45.5
14,Y[Aib]QGTFTSDYSIYLEKQAA[Aib]KFVQWLLEGGPSSGAPPPS-NH2 (not fully specified (residue 21)) [Compound No. 11],7.9
15,B13,11.4
16,B14,1.8

# Target: human glucagon receptor (human, UniProt P47871 26-477)
# Sequence (P47871 26-477): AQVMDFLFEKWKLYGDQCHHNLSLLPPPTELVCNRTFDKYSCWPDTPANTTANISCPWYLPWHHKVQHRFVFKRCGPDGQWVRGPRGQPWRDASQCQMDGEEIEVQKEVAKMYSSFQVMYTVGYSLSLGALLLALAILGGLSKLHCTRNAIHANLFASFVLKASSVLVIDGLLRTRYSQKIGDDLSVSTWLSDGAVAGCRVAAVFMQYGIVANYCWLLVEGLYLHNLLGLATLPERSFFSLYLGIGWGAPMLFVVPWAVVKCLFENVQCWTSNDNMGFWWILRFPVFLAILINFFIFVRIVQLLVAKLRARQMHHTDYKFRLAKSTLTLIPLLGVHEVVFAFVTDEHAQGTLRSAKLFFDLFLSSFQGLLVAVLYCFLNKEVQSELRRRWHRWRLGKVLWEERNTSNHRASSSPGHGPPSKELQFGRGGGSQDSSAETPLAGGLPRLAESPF
# Assay: cell-based or functional assay
row,Binder,hGcgR CRE Luc EC50 (pM)
1,B1,205
2,B2,250
3,B3,287
4,B4,116
5,B5,31.4
6,B6,6.4
7,Y[Aib]QGTFTSDYSIYLEKQAA[Aib]EFVQWLLEGGPSSGAPPPS-NH2 (not fully specified (residue 16)) [Compound No. 17],86.6
8,B7,216
9,B8,61.3
10,B9,267
11,B10,72.1
12,B11,157
13,B12,91.9
14,Y[Aib]QGTFTSDYSIYLEKQAA[Aib]KFVQWLLEGGPSSGAPPPS-NH2 (not fully specified (residue 21)) [Compound No. 11],129
15,B13,185
16,B14,239

# Target: human glucagon-like peptide 1 receptor (human, UniProt P43220 24-463)
# Assay: cell-based or functional assay
row,Binder,hGLP-1R CRE Luc EC50 (pM)
1,B1,7.2
2,B2,4.7
3,B3,4.3
4,B4,4.4
5,B5,9.4
6,B6,1.1
7,Y[Aib]QGTFTSDYSIYLEKQAA[Aib]EFVQWLLEGGPSSGAPPPS-NH2 (not fully specified (residue 16)) [Compound No. 17],2.8
8,B7,5.1
9,B8,8.2
10,B9,1.4
11,B10,106
12,B11,2.8
13,B12,12.1
14,Y[Aib]QGTFTSDYSIYLEKQAA[Aib]KFVQWLLEGGPSSGAPPPS-NH2 (not fully specified (residue 21)) [Compound No. 11],4.3
15,B13,3.1
16,B14,2.4
